The target of the test is T1, HLA-A*02 (human).
T1 construct: Peptide-receptive MHC monomer made by UV cleavage of a UV-sensitive ligand and captured on streptavidin plates; also called HLA-A*02 MHC class I molecule; peptide-receptive MHC
As to the kind of experiment: UV-exchange ELISA (anti-b2m); yield 50%-75%. The text has this: Candidate peptides for T cell based therapies according to the present invention were further tested for their MHC binding capacity (affinity). The individual peptide-MHC complexes were produced by UV-ligand exchange, where a UV-sensitive peptide is cleaved upon UV-irradiation, and exchanged with the peptide of interest as analyzed. Only peptide candidates that can effectively bind and stabilize the peptide-receptive MHC molecules prevent dissociation of the MHC complexes. To determine the yield of the exchange reaction, an ELISA was performed based on the detection of the light chain (β2m) of stabilized MHC complexes. The assay was performed as generally described in Rodenko et al. (Rodenko et al., 2006).
96 well MAXISorp plates (NUNC) were coated over night with 2 ug/ml streptavidin in PBS at room temperature, washed 4× and blocked for 1 h at 37° C. in 2% BSA containing blocking buffer. […] Peptide-MHC monomers of the UV-exchange reaction were diluted 100 fold in blocking buffer. Samples were incubated for 1 h at 37° C., washed four times, incubated with 2 ug/ml HRP conjugated anti-β2m for 1 h at 37° C., washed again and detected with TMB solution that is stopped with […]. Absorption was measured at 450 nm.
(In general: In an ELISA, binding on a coated surface is turned into a signal by an enzyme label.)
In turn, GIYDGILHSI showed a peptide exchange yield of 50 to 75%.
As for SLFGQEVYC, the figure is 50 to 75%; as for ILDNVKNLL, 50 to 75%; as for ALYGKLLKL, 50 to 75%.
As for TLDEYLTYL, the figure is 50 to 75%; as for TLLGKQVTL, 50 to 75%.
As for ILADEAFFSV, the figure is 50 to 75%; as for GLYQAQVNL, 50 to 75%; as for ELLSSIFFL, 50 to 75%.
The molecule FLWNGEDSAL came in with a peptide exchange yield of 50 to 75%.
As for TLLPTVLTL, the figure is 50 to 75%.
As to LLDESKLTL, the peptide exchange yield was in the range of 50 to 75%.
For the molecule FINPKGNWLL, the peptide exchange yield was 50 to 75%.
With KLDGICWQV, the peptide exchange yield was in the range of 50 to 75%.
Molecule GLITVDIAL returned a peptide exchange yield of 50 to 75%.
On to ELLEYLPQL, for which the peptide exchange yield was in the range of 50 to 75%.
With LLWAGPVTA the figure was 50 to 75%; with ILLDESNFNHFL, 50 to 75%; with GMIGFQVLL, 50 to 75%.
In turn, SLAKHGIVAL had a peptide exchange yield of 50 to 75%.
With FLEEEITRV the figure was 50 to 75%.
Turning to VLSPFILTL, the peptide exchange yield fell in the range of 50 to 75%.
On to ALMAVVSGL, for which the peptide exchange yield fell in the range of 50 to 75%.
For TLCNKTFTA, the peptide exchange yield was in the range of 50 to 75%.
For the molecule ELAEIVFKV, the peptide exchange yield lay within 50 to 75%.
Turning to LLWGHPRVA, the peptide exchange yield lay within 50 to 75%.
As for KLGPFLLNA, the figure is 50 to 75%.
For KVDGVVIQL, the peptide exchange yield was in the range of 50 to 75%.
AAAAKVPEV gave a peptide exchange yield of 50 to 75%.
As for IVLSTIASV, the figure is 50 to 75%; as for LLLDGDFTL, 50 to 75%.
YVLNEEDLQKV returned a peptide exchange yield of 50 to 75%.
Regarding LLLPLLPPLSPSLG, the peptide exchange yield fell in the range of 50 to 75%.
Consider VLGPTPELV, for which the peptide exchange yield is 50 to 75%.
Consider SLFNQEVQI, for which the peptide exchange yield was in the range of 50 to 75%.
With FLDPAQRDL the figure was 50 to 75%; with KVFGDLDQV, 50 to 75%; with ALTKILAEL, 50 to 75%.
As to SLLALPQDLQA, the peptide exchange yield lay within 50 to 75%.
VLRDNIQGI gave a peptide exchange yield of 50 to 75%.
Turning to FVLPLVVTL, the peptide exchange yield is 50 to 75%.
With FITDFYTTV the figure was 50 to 75%; with GLFSQHFNL (also called DNMT3B-001), 50 to 75%; with SLLSHVIVA, 50 to 75%.
With ALINDILGELVKL the figure was 50 to 75%; with ALDGHLYAI, 50 to 75%; with TLYSMDLMKV, 50 to 75%.
As for KMQEDLVTL, the figure is 50 to 75%; as for ILHEHHIFL, 50 to 75%.

(Values after patent publication US20170056486A1 (IMMATICS BIOTECHNOLOGIES, published 2017).)
